* marks the point of attachment. C18 diacid = O=C(O)CCCCCCCCCCCCCCCCC(=O)*
T1: human calcitonin receptor (human, UniProt P30988 25-474)
T1 construct: whole, on cells; also called hCT-R; hCTR
T1 sequence (looked up): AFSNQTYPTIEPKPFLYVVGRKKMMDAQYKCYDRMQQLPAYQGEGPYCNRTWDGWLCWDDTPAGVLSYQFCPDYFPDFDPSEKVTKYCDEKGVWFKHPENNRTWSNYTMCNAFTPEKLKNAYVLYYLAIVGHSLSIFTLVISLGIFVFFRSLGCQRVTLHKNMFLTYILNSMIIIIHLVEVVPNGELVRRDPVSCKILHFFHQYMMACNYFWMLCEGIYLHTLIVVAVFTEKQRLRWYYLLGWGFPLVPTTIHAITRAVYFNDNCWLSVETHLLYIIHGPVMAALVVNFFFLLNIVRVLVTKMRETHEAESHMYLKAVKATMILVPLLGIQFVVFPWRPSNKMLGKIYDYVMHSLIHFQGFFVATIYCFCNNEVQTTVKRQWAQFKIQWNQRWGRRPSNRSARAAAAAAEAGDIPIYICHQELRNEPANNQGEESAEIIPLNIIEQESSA

B1: [N-terminal(C18 diacid), 8L]mimylin (peptide)
peptide: {C18 diacid}-EASELSTLALGRLSAELHELATLPRTETGPESP-NH2
SMILES: CC(C)C[C@H](NC(=O)[C@H](C)NC(=O)[C@H](CC(C)C)NC(=O)[C@@H](NC(=O)[C@H](CO)NC(=O)[C@H](CC(C)C)NC(=O)[C@H](CCC(=O)O)NC(=O)[C@H](CO)NC(=O)[C@H](C)NC(=O)[C@H](CCC(=O)O)NC(=O)CCCCCCCCCCCCCCCCC(=O)O)[C@@H](C)O)C(=O)NCC(=O)N[C@@H](CCCNC(=N)N)C(=O)N[C@@H](CC(C)C)C(=O)N[C@@H](CO)C(=O)N[C@@H](C)C(=O)N[C@@H](CCC(=O)O)C(=O)N[C@@H](CC(C)C)C(=O)N[C@@H](Cc1c[nH]cn1)C(=O)N[C@@H](CCC(=O)O)C(=O)N[C@@H](CC(C)C)C(=O)N[C@@H](C)C(=O)N[C@H](C(=O)N[C@@H](CC(C)C)C(=O)N1CCC[C@H]1C(=O)N[C@@H](CCCNC(=N)N)C(=O)N[C@H](C(=O)N[C@@H](CCC(=O)O)C(=O)N[C@H](C(=O)NCC(=O)N1CCC[C@H]1C(=O)N[C@@H](CCC(=O)O)C(=O)N[C@@H](CO)C(=O)N1CCC[C@H]1C(N)=O)[C@@H](C)O)[C@@H](C)O)[C@@H](C)O
notes: also called Ex. #15
B2: [N-terminal(C18 diacid), 9I]mimylin (peptide)
peptide: {C18 diacid}-EASELSTAILGRLSAELHELATLPRTETGPESP-NH2
SMILES: CC[C@H](C)[C@H](NC(=O)[C@H](C)NC(=O)[C@@H](NC(=O)[C@H](CO)NC(=O)[C@H](CC(C)C)NC(=O)[C@H](CCC(=O)O)NC(=O)[C@H](CO)NC(=O)[C@H](C)NC(=O)[C@H](CCC(=O)O)NC(=O)CCCCCCCCCCCCCCCCC(=O)O)[C@@H](C)O)C(=O)N[C@@H](CC(C)C)C(=O)NCC(=O)N[C@@H](CCCNC(=N)N)C(=O)N[C@@H](CC(C)C)C(=O)N[C@@H](CO)C(=O)N[C@@H](C)C(=O)N[C@@H](CCC(=O)O)C(=O)N[C@@H](CC(C)C)C(=O)N[C@@H](Cc1c[nH]cn1)C(=O)N[C@@H](CCC(=O)O)C(=O)N[C@@H](CC(C)C)C(=O)N[C@@H](C)C(=O)N[C@H](C(=O)N[C@@H](CC(C)C)C(=O)N1CCC[C@H]1C(=O)N[C@@H](CCCNC(=N)N)C(=O)N[C@H](C(=O)N[C@@H](CCC(=O)O)C(=O)N[C@H](C(=O)NCC(=O)N1CCC[C@H]1C(=O)N[C@@H](CCC(=O)O)C(=O)N[C@@H](CO)C(=O)N1CCC[C@H]1C(N)=O)[C@@H](C)O)[C@@H](C)O)[C@@H](C)O
notes: also called Ex. #10
B3: [N-terminal(C18 diacid), 9L, 10A]mimylin (peptide)
peptide: {C18 diacid}-EASELSTALAGRLSAELHELATLPRTETGPESP-NH2
SMILES: CC(C)C[C@H](NC(=O)[C@H](C)NC(=O)[C@@H](NC(=O)[C@H](CO)NC(=O)[C@H](CC(C)C)NC(=O)[C@H](CCC(=O)O)NC(=O)[C@H](CO)NC(=O)[C@H](C)NC(=O)[C@H](CCC(=O)O)NC(=O)CCCCCCCCCCCCCCCCC(=O)O)[C@@H](C)O)C(=O)N[C@@H](C)C(=O)NCC(=O)N[C@@H](CCCNC(=N)N)C(=O)N[C@@H](CC(C)C)C(=O)N[C@@H](CO)C(=O)N[C@@H](C)C(=O)N[C@@H](CCC(=O)O)C(=O)N[C@@H](CC(C)C)C(=O)N[C@@H](Cc1c[nH]cn1)C(=O)N[C@@H](CCC(=O)O)C(=O)N[C@@H](CC(C)C)C(=O)N[C@@H](C)C(=O)N[C@H](C(=O)N[C@@H](CC(C)C)C(=O)N1CCC[C@H]1C(=O)N[C@@H](CCCNC(=N)N)C(=O)N[C@H](C(=O)N[C@@H](CCC(=O)O)C(=O)N[C@H](C(=O)NCC(=O)N1CCC[C@H]1C(=O)N[C@@H](CCC(=O)O)C(=O)N[C@@H](CO)C(=O)N1CCC[C@H]1C(N)=O)[C@@H](C)O)[C@@H](C)O)[C@@H](C)O
notes: also called Ex. #27
B4: [N-terminal(C18 diacid), 9V, 18A]mimylin (peptide)
peptide: {C18 diacid}-EASELSTAVLGRLSAELAELATLPRTETGPESP-NH2
SMILES: CC(C)C[C@H](NC(=O)[C@H](CCC(=O)O)NC(=O)[C@H](C)NC(=O)[C@H](CO)NC(=O)[C@H](CC(C)C)NC(=O)[C@H](CCCNC(=N)N)NC(=O)CNC(=O)[C@H](CC(C)C)NC(=O)[C@@H](NC(=O)[C@H](C)NC(=O)[C@@H](NC(=O)[C@H](CO)NC(=O)[C@H](CC(C)C)NC(=O)[C@H](CCC(=O)O)NC(=O)[C@H](CO)NC(=O)[C@H](C)NC(=O)[C@H](CCC(=O)O)NC(=O)CCCCCCCCCCCCCCCCC(=O)O)[C@@H](C)O)C(C)C)C(=O)N[C@@H](C)C(=O)N[C@@H](CCC(=O)O)C(=O)N[C@@H](CC(C)C)C(=O)N[C@@H](C)C(=O)N[C@H](C(=O)N[C@@H](CC(C)C)C(=O)N1CCC[C@H]1C(=O)N[C@@H](CCCNC(=N)N)C(=O)N[C@H](C(=O)N[C@@H](CCC(=O)O)C(=O)N[C@H](C(=O)NCC(=O)N1CCC[C@H]1C(=O)N[C@@H](CCC(=O)O)C(=O)N[C@@H](CO)C(=O)N1CCC[C@H]1C(N)=O)[C@@H](C)O)[C@@H](C)O)[C@@H](C)O
notes: also called Ex. #33
B5: [N-terminal(C18 diacid), 9V, 10I]mimylin (peptide)
peptide: {C18 diacid}-EASELSTAVIGRLSAELHELATLPRTETGPESP-NH2
SMILES: CC[C@H](C)[C@H](NC(=O)[C@@H](NC(=O)[C@H](C)NC(=O)[C@@H](NC(=O)[C@H](CO)NC(=O)[C@H](CC(C)C)NC(=O)[C@H](CCC(=O)O)NC(=O)[C@H](CO)NC(=O)[C@H](C)NC(=O)[C@H](CCC(=O)O)NC(=O)CCCCCCCCCCCCCCCCC(=O)O)[C@@H](C)O)C(C)C)C(=O)NCC(=O)N[C@@H](CCCNC(=N)N)C(=O)N[C@@H](CC(C)C)C(=O)N[C@@H](CO)C(=O)N[C@@H](C)C(=O)N[C@@H](CCC(=O)O)C(=O)N[C@@H](CC(C)C)C(=O)N[C@@H](Cc1c[nH]cn1)C(=O)N[C@@H](CCC(=O)O)C(=O)N[C@@H](CC(C)C)C(=O)N[C@@H](C)C(=O)N[C@H](C(=O)N[C@@H](CC(C)C)C(=O)N1CCC[C@H]1C(=O)N[C@@H](CCCNC(=N)N)C(=O)N[C@H](C(=O)N[C@@H](CCC(=O)O)C(=O)N[C@H](C(=O)NCC(=O)N1CCC[C@H]1C(=O)N[C@@H](CCC(=O)O)C(=O)N[C@@H](CO)C(=O)N1CCC[C@H]1C(N)=O)[C@@H](C)O)[C@@H](C)O)[C@@H](C)O
notes: also called Ex. #26
B6: [N-terminal(C18 diacid), 9V, 28P]mimylin (peptide)
peptide: {C18 diacid}-EASELSTAVLGRLSAELHELATLPRTEPGPESP-NH2
SMILES: CC(C)C[C@H](NC(=O)[C@H](CCC(=O)O)NC(=O)[C@H](Cc1c[nH]cn1)NC(=O)[C@H](CC(C)C)NC(=O)[C@H](CCC(=O)O)NC(=O)[C@H](C)NC(=O)[C@H](CO)NC(=O)[C@H](CC(C)C)NC(=O)[C@H](CCCNC(=N)N)NC(=O)CNC(=O)[C@H](CC(C)C)NC(=O)[C@@H](NC(=O)[C@H](C)NC(=O)[C@@H](NC(=O)[C@H](CO)NC(=O)[C@H](CC(C)C)NC(=O)[C@H](CCC(=O)O)NC(=O)[C@H](CO)NC(=O)[C@H](C)NC(=O)[C@H](CCC(=O)O)NC(=O)CCCCCCCCCCCCCCCCC(=O)O)[C@@H](C)O)C(C)C)C(=O)N[C@@H](C)C(=O)N[C@H](C(=O)N[C@@H](CC(C)C)C(=O)N1CCC[C@H]1C(=O)N[C@@H](CCCNC(=N)N)C(=O)N[C@H](C(=O)N[C@@H](CCC(=O)O)C(=O)N1CCC[C@H]1C(=O)NCC(=O)N1CCC[C@H]1C(=O)N[C@@H](CCC(=O)O)C(=O)N[C@@H](CO)C(=O)N1CCC[C@H]1C(N)=O)[C@@H](C)O)[C@@H](C)O
notes: also called Ex. #32
B7: [N-terminal(C18 diacid), 9V, 25P]mimylin (peptide)
peptide: {C18 diacid}-EASELSTAVLGRLSAELHELATLPPTETGPESP-NH2
SMILES: CC(C)C[C@H](NC(=O)[C@H](CCC(=O)O)NC(=O)[C@H](Cc1c[nH]cn1)NC(=O)[C@H](CC(C)C)NC(=O)[C@H](CCC(=O)O)NC(=O)[C@H](C)NC(=O)[C@H](CO)NC(=O)[C@H](CC(C)C)NC(=O)[C@H](CCCNC(=N)N)NC(=O)CNC(=O)[C@H](CC(C)C)NC(=O)[C@@H](NC(=O)[C@H](C)NC(=O)[C@@H](NC(=O)[C@H](CO)NC(=O)[C@H](CC(C)C)NC(=O)[C@H](CCC(=O)O)NC(=O)[C@H](CO)NC(=O)[C@H](C)NC(=O)[C@H](CCC(=O)O)NC(=O)CCCCCCCCCCCCCCCCC(=O)O)[C@@H](C)O)C(C)C)C(=O)N[C@@H](C)C(=O)N[C@H](C(=O)N[C@@H](CC(C)C)C(=O)N1CCC[C@H]1C(=O)N1CCC[C@H]1C(=O)N[C@H](C(=O)N[C@@H](CCC(=O)O)C(=O)N[C@H](C(=O)NCC(=O)N1CCC[C@H]1C(=O)N[C@@H](CCC(=O)O)C(=O)N[C@@H](CO)C(=O)N1CCC[C@H]1C(N)=O)[C@@H](C)O)[C@@H](C)O)[C@@H](C)O
notes: also called Ex. #31

These binders were tested against T1, human calcitonin receptor (assay: whole-cell competition vs 125I-human calcitonin (Assay VIIa)).
Experimental: The binding assay was performed using a BHK tk'ts 13 cell line was stably transfected with the human calcitonin receptor, and a CRE-responsive luciferase reporter gene.
The day before the assay the cells were Seeded into Poly-D-Lysin coated 384W Opaque White, BD BioCoat plates (10000 cells/well) and Incubated overnight at 37° C., 5% CO2, 95% humidity. […] The morning after, the plates were washed three times in HBSS (4° C.), and lyzed in Lysis buffer (0.1 M NaOH), 1% SDS. Scintillation cocktail (MicroScint40®) was added and the plates were shaken at 500 rpm for a short period. The plate was incubated at room temperature in the dark for 1 hour and Read on a TopCounter™ (Packard). The IC₅₀ was calculated using (one site binding competition analysis) GraphPad Prism5 as a measure of receptor affinity.

Binder	IC50 [nM]
B1	0.473
B2	0.523
B3	0.219
B4	0.752
B5	0.57
B6	3.35
B7	0.506

Source: US20160272683A1 (Novo Nordisk, published 2016)
